The values that follow come from paper PMC5595889.

The assay concerns the target mouse importin α1 lacking the N-terminal importin-β-binding domain (ΔIBB-importin α1) (mouse). In words: ITC. For orientation: Isothermal titration calorimetry measures the heat released or taken up as one component is titrated into another.

influenza NLS2-K peptide (198-[…]-216): the Kd (in general, the concentration at which binding is half-saturated) worked out at 72.4 µM.
